Laboratory results reported in patent US20230340151A1 (Pfizer, published 2023).

Key:
Experiment in all cases: peptide DELFIA ELISA;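 also: epitope mapping using overlapping 20-mer GUCY2C peptides covering residues 1-440, extracellular into transmembrane domain, coated at 20 µg/ml as target antigen and probed with antibodies or GUCY2C-CD3 bispecifics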
GUCY2C_ECD Peptide 2 = target: T1, GUCY2C_ECD Peptide 2 (human)
T1 peptide: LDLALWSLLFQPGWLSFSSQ
Description: (§1) Arrays were reconstituted with acetonitrile to 100 μg/ml and were then further diluted to 20 μg/ml with sodium carbonate/bicarbonate buffer. Purified antibodies or GUCY2c-CD3 bispecifics were then tested by Delfia ELISA for binding to the different peptides using Delfia ELISA methods previously discussed, with diluted peptides used as the target antigen.

GUCY2C_ECD Peptide 4 = target: T2, GUCY2C_ECD Peptide 4 (human)
T2 peptide: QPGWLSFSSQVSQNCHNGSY
Description: as §1

GUCY2C_ECD Peptide 8 = target: T3, GUCY2C_ECD Peptide 8 (human)
T3 peptide: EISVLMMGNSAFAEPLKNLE
Description: as §1

GUCY2C_ECD Peptide 10 = target: T4, GUCY2C_ECD Peptide 10 (human)
T4 peptide: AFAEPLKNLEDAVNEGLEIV
Description: as §1

GUCY2C_ECD Peptide 19 = target: T5, GUCY2C_ECD Peptide 19 (human)
T5 construct: also called GUCY2c peptide 19; GUCY2c-ECD peptide number 19
T5 peptide: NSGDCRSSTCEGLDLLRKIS
Description: as §1

GUCY2C_ECD Peptide 22 = target: T6, GUCY2C_ECD Peptide 22 (human)
T6 peptide: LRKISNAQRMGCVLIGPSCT
Description: as §1

GUCY2C_ECD Peptide 24 = target: T7, GUCY2C_ECD Peptide 24 (human)
T7 peptide: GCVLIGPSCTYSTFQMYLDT
Description: as §1

GUCY2C_ECD Peptide 25 = target: T8, GUCY2C_ECD Peptide 25 (human)
T8 peptide: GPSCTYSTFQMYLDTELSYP
Description: as §1

GUCY2C_ECD Peptide 29 = target: T9, GUCY2C_ECD Peptide 29 (human)
T9 peptide: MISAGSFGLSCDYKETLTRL
Description: as §1

GUCY2C_ECD Peptide 32 = target: T10, GUCY2C_ECD Peptide 32 (human)
T10 peptide: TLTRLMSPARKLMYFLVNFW
Description: as §1

GUCY2C_ECD Peptide 34 = target: T11, GUCY2C_ECD Peptide 34 (human)
T11 peptide: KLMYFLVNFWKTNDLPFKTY
Description: as §1

GUCY2C_ECD Peptide 36 = target: T12, GUCY2C_ECD Peptide 36 (human)
T12 peptide: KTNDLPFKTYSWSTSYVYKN
Description: as §1

GUCY2C_ECD Peptide 37 = target: T13, GUCY2C_ECD Peptide 37 (human)
T13 peptide: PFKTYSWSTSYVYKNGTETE
Description: as §1

GUCY2C_ECD Peptide 40 = target: T14, GUCY2C_ECD Peptide 40 (human)
T14 peptide: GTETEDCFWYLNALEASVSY
Description: as §1

GUCY2C_ECD Peptide 41 = target: T15, GUCY2C_ECD Peptide 41 (human)
T15 peptide: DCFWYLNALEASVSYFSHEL
Description: as §1

GUCY2C_ECD Peptide 43 = target: T16, GUCY2C_ECD Peptide 43 (human)
T16 peptide: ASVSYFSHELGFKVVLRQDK
Description: as §1

GUCY2C_ECD Peptide 45 = target: T17, GUCY2C_ECD Peptide 45 (human)
T17 peptide: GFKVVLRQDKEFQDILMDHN
Description: as §1

GUCY2C_ECD Peptide 46 = target: T18, GUCY2C_ECD Peptide 46 (human)
T18 peptide: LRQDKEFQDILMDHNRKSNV
Description: as §1

GUCY2C_ECD Peptide 47 = target: T19, GUCY2C_ECD Peptide 47 (human)
T19 peptide: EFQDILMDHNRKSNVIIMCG
Description: as §1

GUCY2C_ECD Peptide 48 = target: T20, GUCY2C_ECD Peptide 48 (human)
T20 peptide: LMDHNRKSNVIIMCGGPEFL
Description: as §1

GUCY2C_ECD Peptide 52 = target: T21, GUCY2C_ECD Peptide 52 (human)
T21 peptide: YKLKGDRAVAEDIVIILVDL
Description: as §1

GUCY2C_ECD Peptide 61 = target: T22, GUCY2C_ECD Peptide 61 (human)
T22 peptide: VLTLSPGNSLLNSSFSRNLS
Description: as §1

GUCY2C_ECD Peptide 62 = target: T23, GUCY2C_ECD Peptide 62 (human)
T23 peptide: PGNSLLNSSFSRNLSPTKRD
Description: as §1

GUCY2C_ECD Peptide 63 = target: T24, GUCY2C_ECD Peptide 63 (human)
T24 peptide: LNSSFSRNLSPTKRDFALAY
Description: as §1

GUCY2C_ECD Peptide 69 = target: T25, GUCY2C_ECD Peptide 69 (human)
T25 peptide: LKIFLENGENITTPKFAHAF
Description: as §1

GUCY2C_ECD Peptide 71 = target: T26, GUCY2C_ECD Peptide 71 (human)
T26 peptide: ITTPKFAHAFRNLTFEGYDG
Description: as §1

GUCY2C_ECD Peptide 74 = target: T27, GUCY2C_ECD Peptide 74 (human)
T27 peptide: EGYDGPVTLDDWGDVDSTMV
Description: as §1

GUCY2C_ECD Peptide 77 = target: T28, GUCY2C_ECD Peptide 77 (human)
T28 peptide: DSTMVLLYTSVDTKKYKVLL
Description: as §1

GUCY2C_ECD Peptide 78 = target: T29, GUCY2C_ECD Peptide 78 (human)
T29 peptide: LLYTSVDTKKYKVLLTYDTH
Description: as §1

GUCY2C_ECD Peptide 79 = target: T30, GUCY2C_ECD Peptide 79 (human)
T30 peptide: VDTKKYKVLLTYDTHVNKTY
Description: as §1

GUCY2C_ECD Peptide 81 = target: T31, GUCY2C_ECD Peptide 81 (human)
T31 peptide: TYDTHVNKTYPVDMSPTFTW
Description: as §1

GUCY2C_ECD Peptide 84 = target: T32, GUCY2C_ECD Peptide 84 (human)
T32 peptide: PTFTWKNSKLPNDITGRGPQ
Description: as §1

GUCY2C_ECD Peptide 85 = target: T33, GUCY2C_ECD Peptide 85 (human)
T33 peptide: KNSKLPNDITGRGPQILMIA
Description: as §1

GUCY2C_ECD Peptide 86 = target: T34, GUCY2C_ECD Peptide 86 (human)
T34 peptide: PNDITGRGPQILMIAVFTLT
Description: as §1

GUCY2C_ECD Peptide 88 = target: T35, GUCY2C_ECD Peptide 88 (human)
T35 peptide: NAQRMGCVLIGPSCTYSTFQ
Description: as §1

GUCY2C_ECD Peptide 89 = target: T36, GUCY2C_ECD Peptide 89 (human)
T36 peptide: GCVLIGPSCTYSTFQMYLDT
Description: as §1

B1: GUCY2C-1608 (bispecific antibody)
chain 1: DIQLTQSPSSLSASVGDRVTITCRASESVDYYGSSLLQWYQQKPGKAPKLLIYAASKLASGVPSRFSGSGSGTDFTLTISSLQPEDFATYYCQQTRKAYTFGQGTKLEIKGGGSGGGGEVQLVESGGGLVQPGGSLRLSCAASGFTFSDYYMTWVRQAPGKGLEWVAFIRNQARGYTSDHNPSVKGRFTISRDNAKNSLYLQMNSLRAEDTAVYYCARDRPSYYVLDYWGQGTTVTVSSGCPPCPAPEAAGAPSVFLFPPKPKDTLMISRTPEVTCVVVDVSHEDPEVKFNWYVDGVEVHNAKTKPREEQYNSTYRVVSVLTVLHQDWLNGKEYKCKVSNKALPAPIEKTISKAKGQPREPQVCTLPPSREEMTKNQVSLWCLVKGFYPSDIAVEWESNGQPENNYKTTPPVLDSDGSFFLYSKLTVDKSRWQQGNVFSCSVMHEALHNHYTQKSLSLSPG
chain 2: DIQMTQSPSSLSASVGDRVTITCTSSQSLFNVRSQKNYLAWYQQKPGKAPKLLIYWASTRESGVPSRFSGSGSGTDFTLTISSLQPEDFATYYCKQSYDLFTFGGGTKVEIKGGGGSGGGGEVQLVESGGGLVQPGGSLRLSCAASGFTFSSYWMHWVRQAPGKGLEWIGEIKPSNELTNVHEKFKDRFTISVDKAKNSAYLQMNSLRAEDTAVYYCTRTITTTEGYWFFDVWGQGTLVTVSSGCPPCPAPEAAGAPSVFLFPPKPKDTLMISRTPEVTCVVVDVSHEDPEVKFNWYVDGVEVHNAKTKPREEQYNSTYRVVSVLTVLHQDWLNGKEYKCKVSNKALPAPIEKTISKAKGQPREPQVYTLPPCREEMTKNQVSLSCAVKGFYPSDIAVEWESNGQPENNYKTTPPVLDSDGSFFLVSKLTVDKSRWQQGNVFSCSVMHEALHNHYTQKSLSLSPG
notes: also called GUCY2c CD3 bispecific
- DELFIA TRF (GUCY2C_ECD Peptide 2): 106
- DELFIA TRF (GUCY2C_ECD Peptide 4): 125
- DELFIA TRF (GUCY2C_ECD Peptide 8): 148
- DELFIA TRF (GUCY2C_ECD Peptide 10): 105
- DELFIA TRF (GUCY2C_ECD Peptide 19): 19200
- DELFIA TRF (GUCY2C_ECD Peptide 22): 93.5
- DELFIA TRF (GUCY2C_ECD Peptide 24): 119
- DELFIA TRF (GUCY2C_ECD Peptide 25): 131
- DELFIA TRF (GUCY2C_ECD Peptide 29): 101
- DELFIA TRF (GUCY2C_ECD Peptide 32): 83.2
- DELFIA TRF (GUCY2C_ECD Peptide 34): 99
- DELFIA TRF (GUCY2C_ECD Peptide 36): 112
- DELFIA TRF (GUCY2C_ECD Peptide 37): 107
- DELFIA TRF (GUCY2C_ECD Peptide 40): 85.2
- DELFIA TRF (GUCY2C_ECD Peptide 41): 161
- DELFIA TRF (GUCY2C_ECD Peptide 43): 104
- DELFIA TRF (GUCY2C_ECD Peptide 45): 108
- DELFIA TRF (GUCY2C_ECD Peptide 46): 106
- DELFIA TRF (GUCY2C_ECD Peptide 47): 104
- DELFIA TRF (GUCY2C_ECD Peptide 48): 148
- DELFIA TRF (GUCY2C_ECD Peptide 52): 104
- DELFIA TRF (GUCY2C_ECD Peptide 61): 126
- DELFIA TRF (GUCY2C_ECD Peptide 62): 91.2
- DELFIA TRF (GUCY2C_ECD Peptide 63): 110
- DELFIA TRF (GUCY2C_ECD Peptide 69): 100
- DELFIA TRF (GUCY2C_ECD Peptide 71): 105
- DELFIA TRF (GUCY2C_ECD Peptide 74): 100
- DELFIA TRF (GUCY2C_ECD Peptide 77): 98.2
- DELFIA TRF (GUCY2C_ECD Peptide 78): 97.8
- DELFIA TRF (GUCY2C_ECD Peptide 79): 130
- DELFIA TRF (GUCY2C_ECD Peptide 81): 109
- DELFIA TRF (GUCY2C_ECD Peptide 84): 133
- DELFIA TRF (GUCY2C_ECD Peptide 85): 163
- DELFIA TRF (GUCY2C_ECD Peptide 86): 110
- DELFIA TRF (GUCY2C_ECD Peptide 88): 120
- DELFIA TRF (GUCY2C_ECD Peptide 89): 115
